Measurements from US20240392020A1 (JIANGSU HENGRUI PHARMACEUTICALS, published 2024).
Where two headings read alike, the source gives them in different places. Values belong to the binder of their own block, whether it stands above or below them.

Columns and labels:
[1] = biological target: T1, Heavy chain of D0 (Homo sapiens (Human), UniProt P0DOX5 1-449 = IgG part); assay: co-expression in HEK293E cells, LC-MS for the mispaired molecule
T1 construct: single antibody chain, co-expressed

[2] = biological target: T2, hTSLP (human, UniProt Q969D9 29-159); assay: ELISA
T2 construct: bought

[3] = biological target: T3, hBAFF (human, UniProt Q9Y275 134-285); assay: ELISA
T3 construct: bought

[4] = biological target: T3, hBAFF; assay: ELISA; remark: listed apart in the source
[5] = biological target: T3, hBAFF; assay: SPR Biacore T200, antibody captured on Protein A chip
[6] = biological target: T3, hBAFF; assay: as above; remark: listed apart in the source
[7] = biological target: T4, hP40 (human, UniProt P29460 23-328); assay: SPR Biacore T200, BU5 captured, hP40 injected after saturation with hBAFF
T4 construct: bought
T4 sequence (looked up): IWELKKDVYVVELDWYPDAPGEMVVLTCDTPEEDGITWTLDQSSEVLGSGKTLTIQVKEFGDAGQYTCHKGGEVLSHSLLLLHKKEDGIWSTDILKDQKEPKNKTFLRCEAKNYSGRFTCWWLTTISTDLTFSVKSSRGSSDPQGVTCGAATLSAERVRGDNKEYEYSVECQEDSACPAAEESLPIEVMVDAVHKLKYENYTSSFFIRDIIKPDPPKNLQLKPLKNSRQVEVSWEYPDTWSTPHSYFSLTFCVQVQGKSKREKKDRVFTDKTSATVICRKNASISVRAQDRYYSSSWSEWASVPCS

[8] = biological target: T4, hP40; assay: SPR Biacore T200, antibody captured on Protein A chip
[9] = biological target: T3, hBAFF; assay: SPR Biacore T200, BU5 captured, hBAFF injected after saturation with hP40
[10] = biological target: T5, HJ-2-L2; assay: mass spectrometry of the product of four co-transfected chains of HJ-2; mispairing of heavy chain 2 with light chain 3
T5 construct: also called chain 3 of HJ-2

[11] = biological target: T6, hCD3 antigen protein (heterodimer of delta and epsilon subunits) (human); assay: SPR Biacore T200, antibody captured on Protein A chip
T6 construct: prepared in the laboratory
T6 chain 1: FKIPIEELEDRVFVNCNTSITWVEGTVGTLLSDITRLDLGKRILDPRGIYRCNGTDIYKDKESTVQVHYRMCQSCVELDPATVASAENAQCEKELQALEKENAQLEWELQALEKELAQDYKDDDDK
T6 chain 2: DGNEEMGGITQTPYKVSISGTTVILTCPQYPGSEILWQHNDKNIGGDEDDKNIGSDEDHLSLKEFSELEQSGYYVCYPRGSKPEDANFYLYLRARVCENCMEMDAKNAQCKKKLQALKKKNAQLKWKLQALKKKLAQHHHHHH

[12] = biological target: T7, hB7H3 antigen protein (human, UniProt Q5ZPR3 29-461); assay: as above
T7 construct: prepared in the laboratory
T7 sequence: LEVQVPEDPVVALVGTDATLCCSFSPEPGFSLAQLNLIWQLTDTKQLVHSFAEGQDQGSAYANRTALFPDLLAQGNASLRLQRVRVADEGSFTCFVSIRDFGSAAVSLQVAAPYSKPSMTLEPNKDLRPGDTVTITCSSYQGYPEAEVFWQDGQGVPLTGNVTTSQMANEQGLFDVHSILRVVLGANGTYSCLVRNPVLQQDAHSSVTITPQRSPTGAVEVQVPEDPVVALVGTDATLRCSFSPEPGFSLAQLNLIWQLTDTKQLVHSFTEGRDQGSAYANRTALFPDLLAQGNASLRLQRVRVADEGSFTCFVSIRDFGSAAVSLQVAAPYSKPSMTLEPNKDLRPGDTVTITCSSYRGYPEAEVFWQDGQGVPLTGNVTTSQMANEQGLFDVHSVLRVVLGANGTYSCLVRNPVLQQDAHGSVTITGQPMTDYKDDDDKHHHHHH

[13] = biological target: T8, human PDL1-his (human, UniProt Q9NZQ7 19-239); assay: SPR Biacore T200, antibody captured, hPDL1 injected after saturation with TIGIT
T8 construct: bought; also called hPDL1

[14] = biological target: T9, human TIGIT-his (human, UniProt Q495A1 22-141, limits assumed); assay: SPR Biacore T200, antibody captured, TIGIT injected after saturation with hPDL1
T9 construct: bought; also called hTIGIT
T9 sequence (looked up): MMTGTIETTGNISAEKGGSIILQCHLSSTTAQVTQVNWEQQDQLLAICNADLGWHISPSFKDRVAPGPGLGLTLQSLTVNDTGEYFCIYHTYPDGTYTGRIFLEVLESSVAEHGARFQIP

[15] = biological target: T9, human TIGIT-his; assay: SPR Biacore T200, antibody captured on Protein A chip
[16] = biological target: T8, human PDL1-his; assay: as above

T8 sequence (Q9NZQ7 19-239 limits assumed): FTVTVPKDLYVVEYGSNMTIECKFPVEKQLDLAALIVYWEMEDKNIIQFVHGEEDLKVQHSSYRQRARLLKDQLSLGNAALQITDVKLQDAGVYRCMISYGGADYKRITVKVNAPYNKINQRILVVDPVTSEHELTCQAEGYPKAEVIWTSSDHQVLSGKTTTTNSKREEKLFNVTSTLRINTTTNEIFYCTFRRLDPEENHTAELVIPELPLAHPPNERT
T5 sequence (light, as listed by the source limits assumed): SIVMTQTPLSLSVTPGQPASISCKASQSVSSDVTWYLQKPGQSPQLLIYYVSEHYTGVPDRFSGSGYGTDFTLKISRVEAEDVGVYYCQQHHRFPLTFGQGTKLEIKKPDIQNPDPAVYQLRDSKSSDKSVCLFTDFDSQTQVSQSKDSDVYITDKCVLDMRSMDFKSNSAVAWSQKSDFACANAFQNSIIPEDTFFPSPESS

- binding result [1]: no binding
B1: Light chain of I3 (other)
light: DIQMTQSPSSLSASVGDRVTITCRASQSISNNLNWYQQKPGKAPKLLIYYTSRFHSGVPSRFSGSGSGTDFTFTISSLQPEDIATYYCQQEHTLPYTFGQGTKLEIKSGAPRFLTRPLAFVVSVGKDATLSSQIVGNPTPQVSWEKDKQPVTAGARFRLAQDGDLYRLKILDLQLSDSGQYVSRARNAIGEAFACLGLQVDAEA
notes: single antibody chain, co-expressed

- EC50 [2]: 179 nM
B2: J2 (antibody)
heavy: not shown
light: SYELTQPLSVSVALGQTARITCSGDNIGSKYVHWYQQKPGQAPVLVIYGDNERPSGIPERFSGSNSGNTATLTISRAQAGDEADYYCQAADWVDFYVFGGGTKLTVLFDPVYKVKPNPPHNLSVINSEELSSILKLTWTNPSIKSVIILKYNIQYRTKDASTWSQIPPEDTASTRSSFTVQDLKPFTEYVFRIRCMKEDGKGYWSDWSEEASGIT

- EC50 [2]: 0.25 nM
B3: J3 (antibody)
heavy: not shown
light: SYELTQPLSVSVALGQTARITCSGDNIGSKYVHWYQQKPGQAPVLVIYGDNERPSGIPERFSGSNSGNTATLTISRAQAGDEADYYCQAADWVDFYVFGGGTKLTVLGIPPKIEALPSDISIDEGKVLTVACAFTGEPTPEVTWSCGGRKIHSQEQGRFHIENTDDLTTLIIMDVQKQDGGLYTLSLGNEFGSDSATVNIHIRSI

- EC50 [3]: 0.219 nM
- EC50 [4]: 0.2 nM
- Kd [5]: 0.855 nM
- koff [5]: 0.000152 s⁻¹
- kon [5]: 177000 M⁻¹ s⁻¹
- Kd [6]: 0.864 nM
- koff [6]: 0.000153 s⁻¹
- kon [6]: 177000 M⁻¹ s⁻¹
B4: Bmab (antibody, human IgG1, lambda)
heavy: not shown
light: SSELTQDPAVSVALGQTVRVTCQGDSLRSYYASWYQQKPGQAPVLVIYGKNNRPSGIPDRFSGSSSGNTASLTITGAQAEDEADYYCSSRDSSGNHWVFGGGTELTVLGQPKAAPSVTLFPPSSEELQANKATLVCLISDFYPGAVTVAWKADSSPVKAGVETTTPSKQSNNKYAASSYLSLTPEQWKSHRSYSCQVTHEGSTVEKTVAPTECS
notes: also called B0

- Kd [7]: 0.0661 nM
- koff [7]: 0.000104 s⁻¹
- kon [7]: 1.57e+06 M⁻¹ s⁻¹
- Kd [5]: 0.393 nM
- koff [5]: 7.62e-05 s⁻¹
- kon [5]: 194000 M⁻¹ s⁻¹
- Kd [8]: 0.0664 nM
- koff [8]: 0.000102 s⁻¹
- kon [8]: 1.54e+06 M⁻¹ s⁻¹
- Kd [9]: 0.537 nM
- koff [9]: 8.44e-05 s⁻¹
- kon [9]: 157000 M⁻¹ s⁻¹
B5: BU5 (bispecific antibody, human IgG1, kappa, L234A L235A)
heavy 1: QVQLQQSGAEVKKPGSSVRVSCKASGGTFNNNAINWVRQAPGQGLEWMGGIIPMFGTAKYSQNFQGRVAITADESTGTASMELSSLRSEDTAVYYCARSRDLLLFPHHALSPWGRGTMVTVSSGGGGSGIPPKIECLPIDISIDEGKVLTVASAFTGEPTPEVTWSTGGRKIHSQEQGRFHIENTDDLTTLIIKDVQKQDGGLYTLTLRNEFGSDSATVNIHIRSIDKTHTCPPCPAPEAAGGPSVFLFPPKPKDTLMISRTPEVTCVVVDVSHEDPEVKFNWYVDGVEVHNAKTKPREEQYNSTYRVVSVLTVLHQDWLNGKEYKCKVSNKALPAPIEKTISKAKGQPREPQVCTLPPSREEMTKNQVSLSCAVKGFYPSDIAVEWESNGQPENNYKTTPPVLDSDGSFFLVSKLTVDKSRWQQGNVFSCSVMHEALHNHYTQKSLSLSPGK
light 1: SSELTQDPAVSVALGQTVRVTCQGDSLRSYYASWYQQKPGQAPVLVIYGKNNRPSGIPDRFSGSSSGNTASLTITGAQAEDEADYYCSSRDSSGNHWVFGGGTELTVLGGGGSSGAPRFLTRPLAFVVSVGKDATLSSQIVGNPTPQVSWEKDKQPVTAGARFRLAQDGDLYRLKILDLQLSDSGQYVSRARNAIGEAFACLGLQVDAEA
heavy 2: not shown
light 2: not shown

- binding result [10]: no binding
B6: HJ-2-H1 (other)
heavy: EVQLVESGGGLVQPGGSLRLSCAASGFTFSHYYMAWVRQAPGKGLEWVTSISYEGDITYYGDSVKGRFTISRDNSKNTLYLQMNSLRAEDTATYYCASQTLRESFDYWGQGTLVTVSSASTKGPSVFPLAPSSKSTSGGTAALGCLVKDYFPEPVTVSWNSGALTSGVHTFPAVLQSSGLYSLSSVVTVPSSSLGTQTYICNVNHKPSNTKVDKKVEPKSCDKTHTCPPCPAPEAAGGPSVFLFPPKPKDTLMISRTPEVTCVVVDVSHEDPEVKFNWYVDGVEVHNAKTKPREEQYNSTYRVVSVLTVLHQDWLNGKEYKCKVSNKALPAPIEKTISKAKGQPREPQVCTLPPSREEMTKNQVSLSCAVKGFYPSDIAVEWESNGQPENNYKTTPPVLDSDGSFFLVSKLTVDKSRWQQGNVFSCSVMHEALHNHYTQKSLSLSPGKDYKDDDDK
notes: also called chain 2 of HJ-2

- Kd [11]: 60.2 nM
- koff [11]: 0.00425 s⁻¹
- kon [11]: 70600 M⁻¹ s⁻¹
- Kd [12]: 45 nM
- koff [12]: 0.00712 s⁻¹
- kon [12]: 158000 M⁻¹ s⁻¹
B7: FA-1 (bispecific antibody)
heavy 1: QVQLVQSGGGVVQPGTSLRLSCAASGFIFSSSAMHWVRQAPGKGLEWVAVISYDGSNKYYVDSVKGRFTISRDNSKNTLYLQMNSLRAEDTAVYYCARSARLYASFDYWGQGALVTVSSGGGGSGIPPKIECLPIDISIDEGKVLTVASAFTGEPTPEVTWSTGGRKIHSQEQGRFHIENTDDLTTLIIKDVQKQDGGLYTLTLRNEFGSDSATVNIHIRSIDKTHTCPPCPAPEAAGGPSVFLFPPKPKDTLMISRTPEVTCVVVDVSHEDPEVKFNWYVDGVEVHNAKTKPREEQYNSTYRVVSVLTVLHQDWLNGKEYKCKVSNKALPAPIEKTISKAKGQPREPQVCTLPPSREEMTKNQVSLSCAVKGFYPSDIAVEWESNGQPENNYKTTPPVLDSDGSFFLVSKLTVDKSRWQQGNVFSCSVMHEALHNHYTQKSLSLSPGK
light 1: DTVVTQEPSFSVSPGGTVTLTCGLSSGSVSTSHYPSWYQQTPGQAPRMLIYNTNTRSSGVPDRFSGSILGNKAALTITGAQADDESDYYCAIHVDRDIWVFGGGTKLTVLGGGGSSGAPRFLTRPLAFVVSVGKDATLSSQIVGNPTPQVSWEKDKQPVTAGARFRLAQDGDLYRLKILDLQLSDSGQYVSRARNAIGEAFACLGLQVDAEA
heavy 2: not shown
light 2: not shown
notes: also called FA-1 bispecific antibody

- Kd [13]: 0.0303 nM
- koff [13]: 8.12e-05 s⁻¹
- kon [13]: 2.68e+06 M⁻¹ s⁻¹
- Kd [14]: 0.0954 nM
- koff [14]: 0.00012 s⁻¹
- kon [14]: 1.26e+06 M⁻¹ s⁻¹
- Kd [15]: 0.097 nM
- koff [15]: 0.000123 s⁻¹
- kon [15]: 1.27e+06 M⁻¹ s⁻¹
- Kd [16]: 0.0257 nM
- koff [16]: 9.53e-05 s⁻¹
- kon [16]: 3.71e+06 M⁻¹ s⁻¹
B8: P-O-T (bispecific antibody, human IgG1, kappa)
heavy: not shown
light 1: DIVLTQSPASLAVSPGQRATITCRASESVSIHGTHLMHWYQQKPGQPPKLLIYAASKLESGVPARFSGSGSGTDFTLTINPVEAEDTANYYCQQSFEDPLTFGQGTKLEIKGGGGSGIPPKIECLPIDISIDEGKVLTVASAFTGEPTPEVTWSTGGRKIHSQEQGRFHIENTDDLTTLIIKDVQKQDGGLYTLTLRNEFGSDSATVNIHIRSI
light 2: DIQMTQSPSSLSASVGDRVTITCRASENIYSYLAWYQQKPGKSPKLLIYNARTLAEGVPSRFSGSGSGTDFTLTISSLQPEDFATYYCQYHSGSPLPFGGGTKVEIKRTVAAPSVFIFPPSDEQLKSGTASVVCLLNNFYPREAKVQWKVDNALQSGNSQESVTEQDSKDSTYSLSSTLTLSKADYEKHKVYACEVTHQGLSSPVTKSFNRGEC
notes: also called anti-PDL1-TIGIT bispecific antibody in a (FabV)2-IgG form; PDL1-TIGIT bispecific antibody
